Assay [1] deals with T1, CD40L over-expressed on Expi293 cells (UniProt P29965 1-261, limits assumed).
T1 construct: whole, on cells; also called cytokine over-expressing Expi293 cells
T1 sequence (looked up): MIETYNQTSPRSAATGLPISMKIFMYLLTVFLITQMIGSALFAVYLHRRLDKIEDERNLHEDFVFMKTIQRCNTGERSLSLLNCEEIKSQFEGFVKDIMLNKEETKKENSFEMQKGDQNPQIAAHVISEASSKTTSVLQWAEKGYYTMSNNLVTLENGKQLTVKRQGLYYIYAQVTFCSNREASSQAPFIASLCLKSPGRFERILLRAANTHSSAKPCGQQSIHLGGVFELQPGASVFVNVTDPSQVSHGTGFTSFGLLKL
The assay is described as follows: flow cytometry, 100 nM antibody, CD40L-Expi293 vs parent Expi293 cells.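 Further: ratio is the mean fluorescence intensity on CD40L-overexpressing Expi293 cells divided by the mean fluorescence intensity on parental Expi293 cells.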 On the technique in general: Flow cytometry measures light scatter and fluorescence of single cells or particles in a stream.
Method: (§1) All incubations and washes were in buffer containing PBS+1% BSA. MFI Ratio is defined by the mean fluorescence intensity (MFI) of the cytokine over-expressing Expi293 cell over the Expi293 parent cell. […] EC50 was calculated in GraphPad Prism.

The target in another assay is T2, CD40L (UniProt P29965 113-261, limits assumed).
T2 construct: SPR analyte
T2 sequence (looked up): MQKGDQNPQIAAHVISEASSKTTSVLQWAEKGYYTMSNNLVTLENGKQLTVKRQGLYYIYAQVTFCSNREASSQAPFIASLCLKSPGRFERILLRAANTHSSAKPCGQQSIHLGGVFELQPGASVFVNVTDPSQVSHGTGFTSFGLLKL
The assay is described as follows: SPR (Carterra LSA), antibody amine-coupled, 1:1 model.

The target of assay [2] is T3, IL1RL1 over-expressed on Expi293 cells (UniProt Q01638 19-556, limits assumed).
T3 construct: whole, on cells; Target of the flow cytometry MFI ratio (over-expressing cells over parent cells); also called cytokine over-expressing Expi293 cells
T3 sequence (looked up): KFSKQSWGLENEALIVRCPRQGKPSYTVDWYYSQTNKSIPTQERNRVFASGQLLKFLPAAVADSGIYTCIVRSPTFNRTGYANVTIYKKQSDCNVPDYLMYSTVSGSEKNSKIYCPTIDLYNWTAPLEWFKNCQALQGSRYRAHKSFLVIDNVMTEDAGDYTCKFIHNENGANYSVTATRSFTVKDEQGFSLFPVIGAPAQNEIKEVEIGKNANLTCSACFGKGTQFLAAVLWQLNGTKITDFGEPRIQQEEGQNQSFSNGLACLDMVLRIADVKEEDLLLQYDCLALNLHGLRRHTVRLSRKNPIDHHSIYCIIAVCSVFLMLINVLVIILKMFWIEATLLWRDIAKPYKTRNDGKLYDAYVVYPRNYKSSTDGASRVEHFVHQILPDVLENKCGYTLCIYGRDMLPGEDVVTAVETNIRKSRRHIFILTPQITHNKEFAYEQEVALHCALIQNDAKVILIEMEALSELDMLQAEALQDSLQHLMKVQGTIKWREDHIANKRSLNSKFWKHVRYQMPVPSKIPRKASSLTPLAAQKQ
The assay can be described thus: flow cytometry, 100 nM antibody, over-expressing Expi293 / parent cells.
Method: as §1

B1: CD40L-41 (VHH)
VHH: EVQLVESGGGLVQPGGSLRLSCAASGSTFSKHHAMGWFRQAPGKERELVASISSDNYTVYADSVKGRFTISADNSKNTAYLQMNSLKPEDTAVYYCAREAANYREPPLWGQGTLVTVSS
Consider B1, for which the “100 nM FACS (MFI Ratio)” value in assay [1] was determined as 15.5 ratio. In the assay with CD40L, the affinity, expressed as Kd, was 8.47 nM; the koff – broadly, the first-order rate constant of dissociation – came to 0.000685 s⁻¹; the kon (commonly the second-order rate constant of association) was determined as 80800 M⁻¹ s⁻¹.

B2: CD40L-46 (VHH)
VHH: EVQLVESGGGLVQPGGSLRLSCAASGFTFSRYEMGWFRQAPGKEREWVASLYLNGDYPYYADSVKGRFTISADNSKNTAYLQMNSLKPEDTAVYYCAIPHGIAGRITWGQGTLVTVSS
In the case of B2, the “100 nM FACS (MFI Ratio)” value in assay [1] came out at 45.7 ratio. Further, in the assay with CD40L, binding was put at a Kd of 11.5 nM, the koff was found to be 0.000576 s⁻¹ and the kon turned out to be 50200 M⁻¹ s⁻¹.

B3: CD40L-47 (VHH)
VHH: EVQLVESGGGLVQPGGSLRLSCAASGRTLVNYDMGWFRQAPGKEREFVAAISMSGEDTIYADSVKGRFTISADNSKNTAYLQMNSLKPEDTAVYYCTTGGGTRDYWGQGTLVTVSS
Consider B3, for which the “100 nM FACS (MFI Ratio)” value in assay [1] stood at 41.8 ratio. In addition, in the assay with CD40L, the Kd (commonly the concentration at which binding is half-saturated) amounted to 2.38 nM, the koff came out at 0.000536 s⁻¹ and the kon came to 225000 M⁻¹ s⁻¹.

B4: CD40L-51 (VHH)
VHH: EVQLVESGGGLVQPGGSLRLSCAASGYFASWYYMGWFRQAPGKEREEVATFYTGDGRTYYADSVKGRFTISADNSKNTAYLQMNSLKPEDTAVYYCAAWLNGGNRWGQGTLVTVSS
Regarding B4, the “100 nM FACS (MFI Ratio)” value in assay [1] turned out to be 76.6 ratio. In the assay with CD40L, this molecule yielded a Kd of no more than 0.174 nM, a koff of no more than 1e-05 s⁻¹ and a kon of 57600 M⁻¹ s⁻¹.

B5: IL1RL1-36 (Fc fusion, not shown: a dimerising Fc or GST)
VHH: EVQLVESGGGLVQPGGSLRLSCAASGSIYSLVAMGWFRQAPGKEREWMGVIAYDGSTYYADSVKGRFTISADNSKNTAYLQMNSLKPEDTAVYYCAAVGGATTVTASEWDWGQGTLVTVSS
notes: VHH-Fc on IgG2 Fc
Take B5: the “100 nM FACS (MFI Ratio)” value in assay [2] was found to be 87.7 MFI ratio.

B6: IL1RL1-32 (Fc fusion, not shown: a dimerising Fc or GST)
VHH: EVQLVESGGGLVQPGGSLRLSCAASGFTLGDYVMGWFRQAPGKEREFVAVIYTSDGSTYYADSVKGRFTISADNSKNTAYLQMNSLKPEDTAVYYCVVSFSTRGPYWGQGTLVTVSS
notes: VHH-Fc on IgG2 Fc
B6: in assay [2], the “100 nM FACS (MFI Ratio)” value came to 432 MFI ratio.

B7: IL1RL1-34 (Fc fusion, not shown: a dimerising Fc or GST)
VHH: EVQLVESGGGLVQPGGSLRLSCAASGSTFSNAVMGWFRQAPGKEREFVAVIIDSRTTKYADSVKGRFTISADNSKNTAYLQMNSLKPEDTAVYYCAAVGGATTVTASEWDWGQGTLVTVSS
notes: VHH-Fc on IgG2 Fc
For B7, the “100 nM FACS (MFI Ratio)” value in assay [2] worked out at 476 MFI ratio.

B8: IL1RL1-55 (Fc fusion, not shown: a dimerising Fc or GST)
VHH: EVQLVESGGGLVQPGGSLRLSCAASGEIASIIAMGWFRQAPGKERELVAVIIGGGSTNYADSVKGRFTISADNSKNTAYLQMNSLKPEDTAVYYCAAVGGATTVTASEWDWGQGTLVTVSS
notes: VHH-Fc on IgG2 Fc
Consider B8, for which, in assay [2], the “100 nM FACS (MFI Ratio)” value worked out at 1.6 MFI ratio.

B9: IL1RL1-38 (Fc fusion, not shown: a dimerising Fc or GST)
VHH: EVQLVESGGGLVQPGGSLRLSCAASGFTFSNHIMGWFRQAPGKERELVAVIIDSRTTKYADSVKGRFTISADNSKNTAYLQMNSLKPEDTAVYYCAAVGGATTVTASEWDWGQGTLVTVSS
notes: VHH-Fc on IgG2 Fc
With B9, the “100 nM FACS (MFI Ratio)” value in assay [2] is 1.37 MFI ratio.

B10: IL1RL1-80 (Fc fusion, not shown: a dimerising Fc or GST)
VHH: EVQLVESGGGLVQPGGSLRLSCAASGRTFSPIAMGWFRQAPGKEREMVAVIIDSRTTKYADSVKGRFTISADNSKNTAYLQMNSLKPEDTAVYYCAAVGGATTVTASEWDWGQGTLVTVSS
notes: VHH-Fc on IgG2 Fc
On to B10, for which, in assay [2], the “100 nM FACS (MFI Ratio)” value was found to be 1.49 MFI ratio.

B11: CD40L-38 (VHH)
VHH: EVQLVESGGGLVQPGGSLRLSCAASGVTFSSYDMGWFRQAPGKEREFVAAINWSGGSRSYADSVKGRFTISADNSKNTAYLQMNSLKPEDTAVYYCAIPRFRPYEYDWGQGTLVTVSS
Consider B11, for which the “100 nM FACS (MFI Ratio)” value in assay [1] was determined as 49 ratio. Besides, in the assay with CD40L, the Kd stood at 8.61 nM, the koff was 0.00052 s⁻¹ and the kon is 60300 M⁻¹ s⁻¹.

B12: IL1RL1-33 (Fc fusion, not shown: a dimerising Fc or GST)
VHH: EVQLVESGGGLVQPGGSLRLSCAASGGTFSTHWMGWFRQAPGKEREEVAAISWIIGSTYYADSVKGRFTISADNSKNTAYLQMNSLKPEDTAVYYCATSGSGSPNWGQGTLVTVSS
With B12, the “100 nM FACS (MFI Ratio)” value in assay [2] was found to be 504 MFI ratio.

B13: IL1RL1-31 (Fc fusion, not shown: a dimerising Fc or GST)
VHH: EVQLVESGGGLVQPGGSLRLSCAASGFTFRNFGMGWFRQAPGKEREFVALINVGGVAKYADSVKGRFTISADNSKNTAYLQMNSLKPEDTAVYYCTTDARHWGQGTLVTVSS
notes: VHH-Fc on IgG2 Fc
Regarding B13, the “100 nM FACS (MFI Ratio)” value in assay [2] turned out to be 311 MFI ratio.

B14: IL1RL1-30 (Fc fusion, not shown: a dimerising Fc or GST)
VHH: EVQLVESGGGLVQPGGSLRLSCAASGDISSIVAMGWFRQAPGKEREWVASISTSGSTITPYADSVKGRFTISADNSKNTAYLQMNSLKPEDTAVYYCAAGAVRYGVSTSPMNYNWGQGTLVTVSS
notes: VHH-Fc on IgG2 Fc
Regarding B14, the “100 nM FACS (MFI Ratio)” value in assay [2] is 515 MFI ratio.

B15: IL1RL1-28 (Fc fusion, not shown: a dimerising Fc or GST)
VHH: EVQLVESGGGLVQPGGSLRLSCAASGRTISRYTMGWFRQAPGKEREFVAGIWSGGYTHYADSVKGRFTISADNSKNTAYLQMNSLKPEDTAVYYCAAVSSNTEIFDWGQGTLVTVSS
notes: VHH-Fc on IgG2 Fc
As to B15, in assay [2], the “100 nM FACS (MFI Ratio)” value turned out to be 473 MFI ratio.

B16: IL1RL1-35 (Fc fusion, not shown: a dimerising Fc or GST)
VHH: EVQLVESGGGLVQPGGSLRLSCAASGLTISSLTMGWFRQAPGKEREFVAGIWSGGYTHYADSVKGRFTISADNSKNTAYLQMNSLKPEDTAVYYCAAVSSNTEIFDWGQGTLVTVSS
notes: VHH-Fc on IgG2 Fc
As to B16, the “100 nM FACS (MFI Ratio)” value in assay [2] came out at 514 MFI ratio.

B17: IL1RL1-85 (Fc fusion, not shown: a dimerising Fc or GST)
VHH: EVQLVESGGGLVQPGGSLRLSCAASGRTFSTAGMGWFRQAPGKEREWVASIITSGSTITPYADSVKGRFTISADNSKNTAYLQMNSLKPEDTAVYYCAVVDLLRGKLWGQGTLVTVSS
notes: VHH-Fc on IgG2 Fc
Regarding B17, in assay [2], the “100 nM FACS (MFI Ratio)” value was determined as 4.47 MFI ratio.

B18: IL1RL1-76 (Fc fusion, not shown: a dimerising Fc or GST)
VHH: EVQLVESGGGLVQPGGSLRLSCAASGSIFTIYAMGWFRQAPGKEREWVASISTSGSTITPYADSVKGRFTISADNSKNTAYLQMNSLKPEDTAVYYCATTEYSGYDAVNYWGQGTLVTVSS
notes: VHH-Fc on IgG2 Fc
In the case of B18, the “100 nM FACS (MFI Ratio)” value in assay [2] was determined as 385 MFI ratio.

B19: IL1RL1-79 (Fc fusion, not shown: a dimerising Fc or GST)
VHH: EVQLVESGGGLVQPGGSLRLSCAASGRTFSMGWFRQAPGKEREAVASISWSGGSAFYADSVKGRFTISADNSKNTAYLQMNSLKPEDTAVYYCAAIGGGAVWGQGTLVTVSS
notes: VHH-Fc on IgG2 Fc
Regarding B19, the “100 nM FACS (MFI Ratio)” value in assay [2] is 1 MFI ratio.

B20: IL1RL1-29 (Fc fusion, not shown: a dimerising Fc or GST)
VHH: EVQLVESGGGLVQPGGSLRLSCAASGGFSVYAMGWFRQAPGKEREWVSSTSTGGGGTYYADSVKGRFTISADNSKNTAYLQMNSLKPEDTAVYYCAANVGVTGSYEWGQGTLVTVSS
notes: VHH-Fc on IgG2 Fc
In the case of B20, the “100 nM FACS (MFI Ratio)” value in assay [2] was found to be 431 MFI ratio.

B21: CD40L-55 (VHH)
VHH: EVQLVESGGGLVQPGGSLRLSCAASGLPFSTLHMGWFRQAPGKEREFVAAISRSGNLKAYADSVKGRFTISADNSKNTAYLQMNSLKPEDTAVYYCAADDYLGGDNWYLGPYDWGQGTLVTVSS
B21: the “100 nM FACS (MFI Ratio)” value in assay [1] is 3.2 ratio. In the assay with CD40L, this molecule had a Kd of 10 nM, a koff of 0.0001 s⁻¹ and a kon of 10000 M⁻¹ s⁻¹.

B22: CD40L-39 (VHH)
VHH: EVQLVESGGGLVQPGGSLRLSCAASGGTLDDYVMGWFRQAPGKEREFVASIGRSGNSAVNTDYADSVKGRFTISADNSKNTAYLQMNSLKPEDTAVYYCAREPYSGTYYPRYWGQGTLVTVSS
On to B22, for which, in assay [1], the “100 nM FACS (MFI Ratio)” value worked out at 114 ratio. In the assay with CD40L, binding was put at a Kd of 0.194 nM, the koff was 6.25e-05 s⁻¹ and the kon came out at 322000 M⁻¹ s⁻¹.

B23: CD40L-48 (VHH)
VHH: EVQLVESGGGLVQPGGSLRLSCAASGFTFSRYEMGWFRQAPGKEREFVAAVTEGGTTSYADSVKGRFTISADNSKNTAYLQMNSLKPEDTAVYYCAAESLGRWWGQGTLVTVSS
As to B23, the “100 nM FACS (MFI Ratio)” value in assay [1] was 68.4 ratio. In the assay with CD40L, this molecule had a Kd of 8.48 nM, a koff of 0.000998 s⁻¹ and a kon of 118000 M⁻¹ s⁻¹.

The record behind these values is patent publication US20230265179A1 (TWIST BIOSCIENCE, published 2023).
